The source of these data is FireProtDB (doi:10.1016/0022-2836(92)90560-7).

For this series the following is noted: Bacillus amyloliquefaciens, 25 °C, Urea, Fluorescence, MES/Tris 150 mM/150 mM/, NaCl 1 M, whole UniProt chain shown.

B1: Ribonuclease wild type, P00648 (protein)
chain: MMKMEGIALKKRLSWISVCLLVLVSAAGMLFSTAAKTETSSHKAHTEAQVINTFDGVADYLQTYHKLPDNYITKSEAQALGWVASKGNLADVAPGKSIGGDIFSNREGKLPGKSGRTWREADINYTSGFRNSDRILYSSDWLIYKTTDHYQTFTKIR
In the case of B1, for the setting “pH 5.8”, the denaturant m value amounted to 1.95 kcal/mol/M, the “denaturant midpoint (higher = more stable)” value is 5.62 M and the unfolding free energy was 11 kcal/mol. For the same protein, where the note is “pH 9”, the denaturant m value turned out to be 2.11 kcal/mol/M, the “denaturant midpoint (higher = more stable)” value is 4.8 M and the unfolding free energy was found to be 9.41 kcal/mol.
